The results in this text go back to PMC11894533, “A virulent milRNA of Fusarium oxysporum f. sp. cubense impairs plant resistance by targeting banana AP2 transcription factor coding gene MaPTI6L”.

This data set deals with MaPTI6L (Musa acuminata (Cavendish group cv. …, UniProt A0A804I776 1-300)). Put plainly: EMSA; EMSA Kit (Beyotime) protocol; buffer, salt, pH and temperature not stated. As to conditions: protein: recombinant; tags: MBP; label: FAM.
Chain of MaPTI6L (Musa acuminata (A0A804I776 entry or part of it): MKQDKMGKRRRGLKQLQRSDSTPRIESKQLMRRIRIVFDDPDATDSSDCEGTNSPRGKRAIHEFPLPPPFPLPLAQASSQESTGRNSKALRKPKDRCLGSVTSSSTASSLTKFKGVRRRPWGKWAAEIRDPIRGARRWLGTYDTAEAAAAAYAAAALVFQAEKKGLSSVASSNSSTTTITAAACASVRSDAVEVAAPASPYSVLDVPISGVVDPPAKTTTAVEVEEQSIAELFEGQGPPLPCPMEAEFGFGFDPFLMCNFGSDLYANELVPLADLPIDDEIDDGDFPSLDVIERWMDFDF

B1: MaEDS1 promoter GCC-box mutant probe (dsDNA)
DNA 1: CCAACTCCTCCTCTCTCTGGACAAAAAACACAAACTCGTCTTGAAAACTCCGCGACAAA
DNA 2: TTTGTCGCGGAGTTTTCAAGACGAGTTTGTGTTTTTTGTCCAGAGAGAGGAGGAGTTGG
With B1, the binding result is “no binding”.
